As usually defined, the EC50 (read off the curve) is the concentration needed to bring the measured effect to its halfway point. By koff is commonly meant a measure of how fast the partners let go of each other. Read a low koff as slow dissociation. As a reminder, the Kd is the constant that tells how readily two partners part at equilibrium. A high value points to lower affinity. The term kon denotes the second-order rate constant of association. A higher kon goes with faster complex formation.

The text below walks through data of US20260184814A1 (HUMABS BIOMED, published 2026).

For assay [1], the target named is N1. Nature of the assay: ELISA on N1 NA. Background: An ELISA detects its analyte on a solid surface through an enzyme-linked reagent.
Assay [2] concerns the target N1. Nature of the assay: Bio-Layer Interferometry (BLI); printed as kdis.
The target in assay [3] is N8 A/HARBOR SEAL/NEW …/179629/2011 (Influenza A virus). Nature of the assay: flow cytometry, NA transiently expressed on Expi-CHO cells. (Flow cytometry measures light scatter and fluorescence of single cells or particles in a stream.)
Assay [4] deals with N9 neuraminidase from A/Anhui/1/2013 (Influenza A virus A/Anhui/1/2013 (H7N9)). The description is as above.
Assay [5] addresses T1, N2 neuraminidase from A/Washington/01/2007 (Influenza A virus A/Washington/01/2007).
T1 construct: whole, on cells
The description is as above.

For assay [6], the target named is IBV neuraminidase from B/Lee/10/1940 (Ancestral) (Influenza B virus B/Lee/10/1940, UniProt P03474 1-466). The description is as above.
The target of assay [7] is N6 neuraminidase from A/swine/Ontario/01911/1/99 (Influenza A virus …). The assay is described as above.
Assay [8] has as its target N2 neuraminidase from A/Leningrad/134/17/57 (Influenza A virus A/Leningrad/134/17/57, UniProt Q67214 1-469). The assay is described as above.
The target in assay [9] is N1. Nature of the assay: Bio-Layer Interferometry (BLI). In general terms: In BLI a coated tip is dipped into the sample, and binding shifts an interference pattern.

B1: FNI3 (antibody, V domains shown)
VH: QVQLVQSGAEVKRPGSSVKVSCKASGATFSNNVIAWVRQAPGQGLEWMGGIHPISATATYAQKFQGRVAIAADELTSTAYMELNGLRSEDSAVYYCARAGSDYFNRDLGWENYYFDSWGQGTLVTVSS
VL: EILMTQSPATLSVSPGERATLSCRASQDVSGNLAWYQQRPGQAPRLLIYGASTRATGVPARFTGAGSGTEFTLTISSLQSEDFALYYCQHYNNWPPWTFGQGTKVEIK
B1: the “EC50 (read off the curve)” value in the assay with N1 [1] was ~0.007 µg/mL. Further, in the assay with N1 [2], the koff was < 1e-07 s⁻¹. Moreover, the “lowest concentration at which binding was observed (EC50 scale class)” value in assay [3] was found to be 50 µg/mL; in [4], 0.4 µg/mL; in assay [5], 10 µg/mL; in assay [6] it was 0.4 µg/mL; in assay [7] it was 0.4 µg/mL; in [8], 0.4 µg/mL. Besides, in the assay with N1 [9], the Kd was < 1 pM. In the assay with N1 [9], this molecule registered a kon of 39500 M⁻¹ s⁻¹.
